B1: DX-2400: exemplary MMP-14 antibody; VH SEQ ID NO: 22, VL SEQ ID NO: 23; shares HC and LC CDRs with M0038-F01 (antibody, V domains shown)
VH: EVQLLESGGGLVQPGGSLRLSCAASGFTFSLYSMNWVRQAPGKGLEWVSSIYSSGGSTLYADSVKGRFTISRDNSKNTLYLQMNSLRAEDTAVYYCARGRAFDIWGQGTMVTVSS
VL: DIQMTQSPSSLSASVGDRVTITCRASQSVGTYLNWYQQKPGKAPKLLIYATSNLRSGVPSRFSGSGSGTDFTLTISSLQPEDFATYYCQQSYSIPRFTFGPGTKVDIK
notes: exemplary MMP-14 antibody; shares HC and LC CDRs with M0038-F01
B2: 539A-M0240-B03: exemplary MMP-9 antibody; LC CDRs SEQ ID NO: 14-16, HC CDRs SEQ ID NO: 17-19 (antibody, V domains shown)
VL: QYELTQPRSVSGSPGQSVTISCTGTSSDVGGYNYVSWYQQHPGKAPKLMIYDVSKRPSGVPDRFSGSKSGNTASLTISGLQAEDEADYYCCSYAGSYTLVFGGGTKLTVL
VH: EVQLLESGGGLVQPGGSLRLSCAASGFTFSTYQMVWVRQAPGKGLEWVSVIYPSGGPTVYADSVKGRFTISRDNSKNTLYLQMNSLRAEDTAVYYCARGEDYYDSSGPGAFDIWGQGTMVTVSS

Columns and labels:
Raw 264.7 cells = experiment: Osteoclastogenesis (TRAP staining) and bone resorption (pits) on osteologic slides, RANK ligand-stimulated; assay type: cell-based, Mouse; settings: Raw 264.7 cells + 100 ng/ml murine soluble RANK ligand, 6 days; GM6001 5, 10, 25 μM; 539A-M0240-B03 10, 50 μg/ml; 539A-M0237-D02 10, 100 μg/ml; dose-dependent; data not shown
Experimental: Cells. […] Cells between passage 3-7 were used in this study.
Materials. […] Tartrate-resistant acid phosphatase (TRAP) staining kit was obtained from KAMIYA BIOMEDICA COMPANY™, Seattle Wash. (Catalog #KT-008). GM6001 was obtained from MILLIPORE™.
Methods. Approximately 2000 Raw 264.7 cells per slide were seeded onto osteologic multitest slides with complete growth medium. […] The slides were then incubated at 37° C. for 6 days, replacing fresh media on day 3 as described above. At the end of incubation time, one side of the slide was stained for TRAP and the other side of the slide was bleached (10% bleach), washed several times with water, and air dried. The slides were then viewed under the microscope for either multinucleated TRAP positive cells or resorbed areas (pits). Cells incubated with media only and recombinant osteoprotegerin (rH OPG) (100 ng/ml) served as negative and positive controls, respectively.

MMP-14 = MMP-14 (Homo sapiens, UniProt P50281); experiment: MMP-14 inhibition (statement, no method given); assay type: biochemical
[1] = test system: PC-3 prostate cancer cells; experiment: PC-3 prostate cancer model, intra-tibial inoculation, osteolytic lesions; assay type: in vivo; settings: mice, intra-tibial PC-3 cells; 10 mg/kg Q2D for 14 days, started 3 days after inoculation; vs PBS control; X-ray and bone histomorphometric analysis
Experimental: PC-3 prostate cancer cells were inoculated intra-tibially into mice. Treatment was initiated 3 days after intra-tibial inoculation of the cells. DX-2400 (10 mg/kg) and a PBS control were administered Q2D for 14 days.

MMP-9 [2] = molecular target: T1, MMP-9 (Homo sapiens, UniProt P14780); experiment: MMP-9 inhibition, selectivity (statement, no method given); assay type: biochemical
Target sequence in this assay (P14780 94-707, species assumed): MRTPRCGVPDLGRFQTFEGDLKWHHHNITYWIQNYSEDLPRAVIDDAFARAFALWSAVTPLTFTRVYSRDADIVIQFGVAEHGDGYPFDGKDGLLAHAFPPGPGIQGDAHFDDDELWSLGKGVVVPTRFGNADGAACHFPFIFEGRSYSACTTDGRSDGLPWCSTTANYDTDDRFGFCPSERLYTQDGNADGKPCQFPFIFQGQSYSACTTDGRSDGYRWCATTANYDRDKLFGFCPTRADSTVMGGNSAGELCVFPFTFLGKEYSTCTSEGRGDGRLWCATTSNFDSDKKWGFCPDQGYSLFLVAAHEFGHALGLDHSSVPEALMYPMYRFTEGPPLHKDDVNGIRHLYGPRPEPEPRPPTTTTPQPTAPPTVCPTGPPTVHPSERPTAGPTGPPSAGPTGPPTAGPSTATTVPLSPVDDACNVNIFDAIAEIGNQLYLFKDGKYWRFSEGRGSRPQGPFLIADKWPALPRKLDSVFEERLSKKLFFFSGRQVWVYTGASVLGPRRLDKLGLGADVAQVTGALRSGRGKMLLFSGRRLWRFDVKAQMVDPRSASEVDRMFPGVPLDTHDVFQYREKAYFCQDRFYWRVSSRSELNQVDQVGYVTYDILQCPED

MMP-9 [3] = molecular target: T1, MMP-9; experiment: Inhibition of human MMP-9 activity (statement, no method given); assay type: biochemical
Target sequence in this assay (P14780 94-707): as the sequence (P14780 94-707, species assumed) above

mouse MMP-9 = mouse MMP-9 (Mus musculus, UniProt P41245); experiment: Inhibition of mouse MMP-9 activity (statement, no method given); assay type: biochemical
Sequence of mouse MMP-9 (P41245 108-730): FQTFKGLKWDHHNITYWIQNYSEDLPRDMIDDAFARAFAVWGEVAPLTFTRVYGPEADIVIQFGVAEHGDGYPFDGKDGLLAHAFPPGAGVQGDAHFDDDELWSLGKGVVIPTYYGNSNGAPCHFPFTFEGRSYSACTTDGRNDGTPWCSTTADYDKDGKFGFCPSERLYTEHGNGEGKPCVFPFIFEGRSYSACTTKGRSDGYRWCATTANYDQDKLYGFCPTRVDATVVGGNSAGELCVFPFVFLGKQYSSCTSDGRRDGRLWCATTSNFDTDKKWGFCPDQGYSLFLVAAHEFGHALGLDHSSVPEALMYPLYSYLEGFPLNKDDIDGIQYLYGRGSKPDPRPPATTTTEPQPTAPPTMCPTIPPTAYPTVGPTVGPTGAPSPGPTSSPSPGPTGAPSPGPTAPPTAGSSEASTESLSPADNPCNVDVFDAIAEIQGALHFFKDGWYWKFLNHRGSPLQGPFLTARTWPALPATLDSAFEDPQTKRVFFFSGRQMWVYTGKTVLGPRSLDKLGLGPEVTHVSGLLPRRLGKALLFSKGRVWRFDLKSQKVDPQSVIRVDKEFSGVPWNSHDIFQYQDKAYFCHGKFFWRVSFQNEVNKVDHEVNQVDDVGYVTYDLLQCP

| Molecule | effect on bone resorption (number of resorbed areas, pits) (Raw 264.7 cells) | effect on osteoclastogenesis (TRAP-positive staining) (Raw 264.7 cells) | selectivity of MMP-14 inhibition (MMP-14) | reduction of the area of the osteolytic lesions [1] | selectivity of MMP-9 inhibition (MMP-9 [2]) | effect on activity of human MMP-9 (MMP-9 [3]) | effect on activity of mouse MMP-9 (mouse MMP-9) |
| --- | --- | --- | --- | --- | --- | --- | --- |
| CNC(=O)[C@H](Cc1c[nH]c2ccccc12)NC(=O)[C@@H](CC(=O)NO)CC(C)C [GM6001, reference compound] | inhibitory effects | inhibitory effects | – | – | – | – | – |
| B1 | – | – | selective inhibitor of MMP-14 | about 3 fold | – | – | – |
| B2 | inhibitory effects | inhibitory effects | – | – | selective inhibitor of MMP-9 | can decrease or inhibit the activity | can decrease or inhibit the activity |

Reference: patent publication US8501181B2, “Compositions and methods for treating osteolytic disorders comprising MMP-14 binding proteins” (Dyax Corp., priority 2007, dated 2013)
